From US6495376B1, “Methods and compositions for regulating protein-protein interactions” (Beth Israel Deaconess Medical Center, priority 1999, dated 2002) come the findings set out here.

Data set [1] deals with WFYpSPFLE (Pintide). Briefly: Fluorescence anisotropy (polarization) binding to fluorescein-labeled phosphorylated Pintide analogue. An excerpt: To determine the affinity of Pin1, and its WW or PPIase domain for phosphopeptides, peptides were labeled with fluorescein and their interactions with Pin1 measured using quantitative fluorescence anisotrophy. To prevent nonspecific labeling, a Pintide analogue (WFYpSPFLE) SEQ ID NO: 9 was used, which binds Pin1 with a high affinity based on the peptide library screen as described by (Lu, K. P. et al., U.S. Ser. No. 60/058,164 (1997), the teachings of which are incorporated herein in their entirety.
Pintide and its nonphosphorylated counterpart were synthesized and incubated with GST-Pin1 or the GST-WW-domain of Pin1 in a binding buffer, using established procedures (Shen, M. et al., Genes & Dev 12:706 (1998)). After a 1 hr incubation, mitotic HeLa cell extracts were added and subjected to GST pull down experiments, followed by immunoblotting analysis using the MPM-2 antibody. To obtain semi-quantitative data, films of immunoblots were scanned at the region of 55 kDa, the major Pin1-binding protein, and data analyzed using ImageQuan (ScanJet II CX). The peptide binding constants were measured using a fluorescence polarization assay (Jiskoot, W. et al., Anal Biochem 196:421 (1991)). Peptides were fluorescein labeled at the N-terminus using the Fluorescein Amine Labeling Kit (Pan Vera Corp.) and purified by TLC according to the manufacturer's […]. To prevent nonspecific labeling, a Pintide analogue (WFYpSPFLE) SEQ ID NO: 8 and the nonphosphorylated control were used. Various concentrations of Pin1 and its mutant proteins were incubated with 0.1 μM of the labeled peptides in a binding buffer containing 50 mM HEPES, pH 7.4, 100 mM NaCl, 2% glycerol. Fluorescence polarization values were obtained using a Pan Vera Beacon 2000 system, as described by the manufacturer.
(Fluorescence polarisation rises when a labelled molecule tumbles more slowly, as on binding a larger partner.)

Data set [2] concerns MPM-2 antigens (mitotic phosphoproteins) of mitotic HeLa cell extracts. Briefly: GST pulldown from mitotic HeLa cell extracts, MPM-2 immunoblotting (phosphoprotein-binding activity). The procedure:
GST-fusion proteins containing the WW-domain, PPIase-domain or the entire Pin 1 protein were prepared and incubated with interphase (G1/S arrested; Control) or dividing (M phase) HeLa cell extracts using well-known procedures (Lu, K. P., et al., Nature 380:544 (1996); (Shen, M., et al., Genes & Devl. 12:706 (1998)). Briefly, HeLa cells were arrested at the G1/S boundary or mitosis by incubation with thymidine and aphidicolin or nocodazole for 16 h, respectively. The cells were lysed and supernatants incubated with 10 μl of agarose beads containing GST-Pin1; GST-WW-domain of Pin1; GST-PPIase domain of Pin1; or control GST for 2 h at 4° C. […]
Pintide and its nonphosphorylated counterpart were synthesized and incubated with GST-Pin1 or the GST-WW-domain of Pin1 in a binding buffer, using established procedures (Shen, M. et al., Genes & Dev 12:706 (1998)). […] To obtain semi-quantitative data, films of immunoblots were scanned at the region of 55 kDa, the major Pin1-binding protein, and data analyzed using ImageQuan (ScanJet II CX). The peptide binding constants were measured using a fluorescence polarization assay (Jiskoot, W. et al., Anal Biochem 196:421 (1991)). […] Fluorescence polarization values were obtained using a Pan Vera Beacon 2000 system, as described by the manufacturer. […]
(Immunoblotting shows a protein as a band on a membrane.)

Data set [3] has as its system phosphorylated tau. The experiment in a line: GST-Pin1 pulldown of tau. It is filed as binding. As to conditions: tau phosphorylated by Cdc2 in vitro. An excerpt:
Pin1 binds and regulates the function of a defined subset of mitotic phosphoproteins by interacting with conserved phosphorylated Ser/Thr-Pro motifs that are also recognized by MPM-2, a mitosis-specific, phosphorylation-dependent monoclonal antibody (mAb) (Yaffe, M. B. et al., Science 278:1957-1960 (1997); Shen, M. et al., Genes Dev. 12:706-720 (1 998)). Tau is an MPM-2 antigen phosphorylated on multiple Ser/Thr-Pro motifs during mitosis (Illenberger, S. et al., Mol Biol Cell 9:1495-1512 (1998)). Experiments were undertaken to determine whether Pin1 binds tau. Tau isoform was either synthesized by in vitro transcription and translation in the presence of ^35S-Met or produced in bacteria as an N-terminal His-tagged protein, followed by purification using NTA-Ni columns (Yaffe, M. B. et al., Science 278:1957-1960 (1997); Shen, M. et al., Genes Dev. 12:706-720 (1998)). To generate interphase- and mitosis-specific phosphorylated form of tau, tau was incubated with Xenopus interphase and mitotic extracts, respectively (Shen, M. et al., Genes Dev. 12:706-720 (1998)). […]
To determine whether Pin1 interacts with pT231-tau, GST-Pin1 beads were used to isolate tau from AD brain extracts or PHFs and T231 phosphorylation detected using CP9. […]

The test system of data set [4] is peptide substrate. The experiment in a line: PPIase activity assay with peptide substrate. As to conditions: relative to wild-type protein defined as 100%. Type of data set: biochemical.
Data set [5] addresses WFYSPFLE
The experiment in a line: Fluorescence anisotropy binding to fluorescein-labeled nonphosphorylated control peptide. To be noted: nonphosphorylated peptide.

phosphorylated tau, sequence (P10636 45-216 isoform P10636-2 limits assumed): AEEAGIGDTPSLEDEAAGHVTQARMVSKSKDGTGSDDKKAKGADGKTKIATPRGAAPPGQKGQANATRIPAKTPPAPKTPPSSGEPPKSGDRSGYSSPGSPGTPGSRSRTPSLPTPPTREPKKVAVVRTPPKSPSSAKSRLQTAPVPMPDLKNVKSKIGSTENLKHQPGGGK

B1: PPlase Domain: C-terminal PPIase domain (amino acids 47-163) of Pin1 (protein)
chain: NGQGEPARVRCSHLLVKHSQSRRPSSWRQEKITRTKEEALELINGYIQKIKSGEEDFESLASQFSDCSSAKARGDLGAFSRGQMQKPFEDASFALRTGEMSGPVFTDSGIHIILRTE
For the molecule B1, the “fold lower affinity for the phosphopeptide than the WW-domain” value in data set [1] is “about 10 fold”. Moreover, the “binding to Pintide (in words)” value in data set [1] (fluorescence anisotropy) is “No binding was detected”. Further, the dissociation constant (Kd) in data set [1] (low affinity binding site, read-out: WFYpSPFLE Kd(μM) Low affinity) is 15 µM. The Phosphoprotein binding activity result in data set [2] (GST-fusion proteins with mitotic extracts, MPM2 antibody) is given as “−”. Further, the “binding to mitotic phosphoproteins / MPM-2 antigens (in words)” value in data set [2] (mitotic HeLa cell extracts) is listed as “no specific binding”. For the same molecule, the “binding to Cdc2 phosphorylated tau” value in data set [3] was “not”. For the same molecule, in data set [4], the “PPlase Activity (%)” value is recorded as 90%. The “WFYSPFLE Kd” value in data set [5] was “Not binding”; in data set [5] (listed as PPIase domain), “No binding was detected”.

As a reminder, the Kd is the equilibrium constant for the complex coming apart.
